According to patent US20190300605A1 (Pfizer, published 2019):

How the values were obtained:
[1] = biological target: T1, MAdCAM-IgG1 Fc fusion protein (human); assay: SPR BIAcore protocol 2: mAb amine-coupled, MAdCAM-IgG1 Fc injected
T1 construct: Made in CHO-DHFR cells; also called MAdCAM-IgFc
Protocol: Affinity-purified mAb were immobilized onto the dextran layer of a CMS biosensor chip using amine coupling. […] Samples of MAdCAM-IgG₁ Fc fusion protein in running buffer were prepared at concentrations ranging from 0.2-55 nM (a 0 nM solution comprising running buffer alone was included as a zero reference). Samples were randomized and injected in duplicate for 3 mM each across 4 flow cells using HBS-EP (10 mM HEPES pH 7.4, 150 mM NaCl, 3 mM EDTA, 0.005% Surfactant P20) as running buffer. A flow rate of 100 μL/min was used to minimize mass transport limitations. Dissociation of MAdCAM-IgG₁ Fc fusion protein was monitored for 180 mins, the surface regenerated by a 6 sec injection of 25 mM H₃PO₄ (50 μL/min), or 10 mM (6.22.2), 20 mM (6.67.1, 6.73.2, 6.77.1) to 25 mM (6.34.2) and 45 mM NaOH (6.14.2) and the data analysed using the BIAevaluation (v3.1) software package.

recombinant mouse MAdCAM = biological target: T2, recombinant mouse MAdCAM (mouse, UniProt Q61826 22-365); assay: ELISA
T2 sequence (looked up): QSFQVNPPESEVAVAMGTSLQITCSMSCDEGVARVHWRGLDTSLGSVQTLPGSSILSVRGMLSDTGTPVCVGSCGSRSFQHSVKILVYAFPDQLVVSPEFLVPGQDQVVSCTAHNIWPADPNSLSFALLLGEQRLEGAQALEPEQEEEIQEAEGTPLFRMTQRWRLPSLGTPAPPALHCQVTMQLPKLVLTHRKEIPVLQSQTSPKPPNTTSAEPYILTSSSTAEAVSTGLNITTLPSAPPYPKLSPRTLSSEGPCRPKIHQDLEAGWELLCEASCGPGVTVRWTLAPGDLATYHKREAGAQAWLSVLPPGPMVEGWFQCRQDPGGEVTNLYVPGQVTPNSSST

[2] = biological target: T1, MAdCAM-IgG1 Fc fusion protein; assay: SPR BIAcore protocol 1: mAb captured, MAdCAM-IgG1 Fc injected
Protocol: To perform kinetic analyses, a high density mouse anti-human (IgG₂ and IgG₄) antibody surface over a CMS BIAcore sensor chip was prepared using routine amine coupling. Hybridoma supernatants were diluted 10, 5, 2-fold in HBS-P (10 mM HEPES pH 7.4, 150 mM NaCl, 0.005% Surfactant P20) running buffer containing 100 μg/mL BSA and 10 mg/mL carboxymethyldextran or used neat. Each mAb was captured onto a separate surface using a […] contact time and a 5 mM wash for stabilization of the mAb baseline. MAdCAM-IgG₁ Fc (141 nM) fusion protein was then injected at over all surfaces for one minute, followed by a 3 mM dissociation. The data were normalized for the amount of antibody captured on each surface and evaluated with global fit Langmuir 1:1, using baseline drift models available on the BIAevaluation software provided by BIAcore.

[3] = biological target: T3, human MAdCAM (full length) (human, UniProt Q13477 19-382); assay: cell-based or functional assay
T3 sequence (looked up): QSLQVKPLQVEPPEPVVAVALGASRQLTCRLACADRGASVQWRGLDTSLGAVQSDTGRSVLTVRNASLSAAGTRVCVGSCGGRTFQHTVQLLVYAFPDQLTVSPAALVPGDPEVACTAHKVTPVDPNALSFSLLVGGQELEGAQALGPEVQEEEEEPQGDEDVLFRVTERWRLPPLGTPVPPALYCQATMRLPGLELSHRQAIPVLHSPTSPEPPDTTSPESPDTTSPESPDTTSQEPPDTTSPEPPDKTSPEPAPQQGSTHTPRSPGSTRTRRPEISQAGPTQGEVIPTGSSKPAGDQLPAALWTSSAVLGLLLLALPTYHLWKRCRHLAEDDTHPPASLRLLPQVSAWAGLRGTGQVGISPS

[4] = biological target: T1, MAdCAM-IgG1 Fc fusion protein; assay: cell-based or functional assay
[5] = biological target: T1, MAdCAM-IgG1 Fc fusion protein; assay: cell-based or functional assay; remark: listed apart in the source
Target sequence in this assay (chain, as listed by the source limits assumed): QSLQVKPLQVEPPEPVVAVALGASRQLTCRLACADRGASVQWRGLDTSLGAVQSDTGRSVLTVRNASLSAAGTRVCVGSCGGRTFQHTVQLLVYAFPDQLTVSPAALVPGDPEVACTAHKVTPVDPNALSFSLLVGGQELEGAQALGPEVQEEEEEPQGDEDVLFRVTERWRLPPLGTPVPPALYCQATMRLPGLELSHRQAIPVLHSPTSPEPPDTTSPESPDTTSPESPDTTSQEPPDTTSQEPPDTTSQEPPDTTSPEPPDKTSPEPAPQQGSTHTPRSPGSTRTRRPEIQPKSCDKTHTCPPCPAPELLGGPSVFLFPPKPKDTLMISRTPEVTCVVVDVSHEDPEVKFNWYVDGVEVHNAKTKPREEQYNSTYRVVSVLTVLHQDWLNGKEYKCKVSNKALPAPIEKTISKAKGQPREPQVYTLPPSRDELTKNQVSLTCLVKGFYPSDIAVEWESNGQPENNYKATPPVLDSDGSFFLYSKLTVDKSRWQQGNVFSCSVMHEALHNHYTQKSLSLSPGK

[6] = biological target: T4, chimeric cynomolgus/human MAdCAM (cynomolgus; human, UniProt Q13477 226-382, limits assumed); assay: cell-based or functional assay
T4 sequence: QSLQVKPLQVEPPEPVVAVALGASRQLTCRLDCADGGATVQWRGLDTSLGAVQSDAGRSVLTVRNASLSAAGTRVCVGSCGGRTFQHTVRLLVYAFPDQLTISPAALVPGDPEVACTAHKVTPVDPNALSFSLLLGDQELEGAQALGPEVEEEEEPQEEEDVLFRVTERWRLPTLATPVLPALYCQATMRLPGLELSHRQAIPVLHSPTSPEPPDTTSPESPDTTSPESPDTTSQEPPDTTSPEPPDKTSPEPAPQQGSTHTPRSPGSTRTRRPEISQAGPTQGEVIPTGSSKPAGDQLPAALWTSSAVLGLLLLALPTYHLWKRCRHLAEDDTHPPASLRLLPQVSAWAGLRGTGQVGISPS

Kd [1]	koff [1]	kon [1]	binding result (recombinant mouse MAdCAM)	Kd [2]	koff [2]	kon [2]	Mean IC50, JY cell adhesion, MAdCAM FlpIn CHO Assay [3]	Mean IC50, JY cell adhesion to MAdCAM IgG1 Fc fusion [4]	MAdCAM IgG1 Fc fusion Assay Mean IC50 (Modified) [5]	Functional IC50, cynomolgus/human MAdCAM-CHO/JY adhesion assay [6]	Binder
0.0236 nM	1.3e-07 s⁻¹	5500 M⁻¹ s⁻¹	no binding	≤ 0.042 nM	≤ 1e-05 s⁻¹	240000 M⁻¹ s⁻¹	0.052 µg/mL	0.03 µg/mL	–	–	anti-MAdCAM monoclonal antibody 1.7.2 (antibody, human IgG2, kappa, V domains shown, human IgG2 kappa from hybridoma 1.7.2; biotinylated for staining of human sections) VH: EVQLVESGGGLVKPGGSLRLSCVASGFTFTNAWMIWVRQAPGKGLEWVGRIKRKTDGGTTDYAAPVKGRFTISRDDSKNTLYLQMNSLKTEDTAVYYCTTGGVAEDYWGQGTLVTVSS VL: not shown
0.128 nM	2.3e-05 s⁻¹	180000 M⁻¹ s⁻¹	no binding	≤ 0.035 nM	≤ 1e-05 s⁻¹	290000 M⁻¹ s⁻¹	0.424 µg/mL	0.027 µg/mL	–	–	anti-MAdCAM monoclonal antibody 1.8.2 (antibody, human IgG2, kappa, V domains shown, human IgG2 kappa from hybridoma 1.8.2) VH: EVQLVESGGGLVKPGGSLRLSCVVSGFTFTNAWMIWVRQAPGKGLEWVGRIKRKTDGGTTDYAAPVKGRFTISRDDSKNTLYLQMNSLKTEDTAVYYCTTGGVAEDYWGQGTLVTVSS VL: not shown
–	–	–	–	–	–	–	–	–	0.033 µg/mL	–	modified anti-MAdCAM monoclonal antibody 7.26.4-mod (antibody, human IgG2, kappa, V domains shown) VH: QVQLVQSGAEVKKPGASVKVSCEASGYTFTSYGIDWVRQAPGQGLEWMGWISVYSGNTNYAQKLQGRVTMSTDTSTSTAYMELRSLRSDDTAVYYCAREGSSSSGDYYYGMDVWGQGTTVTVSS VL: DIVMTQTPLSLSVTPGQPASISCKSSQSLLYSDGKTYLFWYLQKPGQPPQLLIYEVSNRFSGVPDRFSGSGSGTDFTLKISRVEAEDVGVYYCMQSIQLPWTFGQGTKVEIKR
–	–	–	no binding	–	–	–	–	–	–	–	anti-MAdCAM monoclonal antibody 7.16.6 (antibody, human IgG2, kappa, V domains shown, Alexa488-labelled in the sandwich ELISA, biotinylated for staining of human sections) VH: QVQLVQSGAEVKKPGASVKVSCKASGYTFTSYGINWVRQAPGQGLEWMGWISVYSGNTNYAQKVQGRVTMTADTSTSTAYMDLRSLRSDDTAVYYCAREGSSSSGDYYYGMDVWGQGTTVTVSS VL: DIVMTQTPLSLSVTPGQPASISCKSSQSLLHTDGTTYLYWYLQKPGQPPQLLIYEVSNRFSGVPDRFSGSGSGTDFTLKISRVEAEDVGIYYCMQNIQLPWTFGQGTKVEIKR
< 0.01 nM	< 5e-06 s⁻¹	500000 M⁻¹ s⁻¹	no binding	≤ 0.0077 nM	≤ 1e-05 s⁻¹	130000 M⁻¹ s⁻¹	0.291 µg/mL	0.011 µg/mL	–	0.53 µg/mL	anti-MAdCAM monoclonal antibody 6.14.2 (antibody, human IgG4, kappa, V domains shown, human IgG4 kappa from hybridoma 6.14.2) VH: EVQLLESGGGLVQPGGSLRLSCAASGLTFNNSAMTWVRQAPGKGLEWVSTTSGSGGTTYYADSVKGRFTISRDSPKNTLYLQMNSLRAEDTAVYYCAARGYSYGTTPYEYWGQGTLVTVSS VL: DIQMTQSPSSLSASVGDRVTITCRASRSISSYLNWYQQKPGKAPKVLIFFVSSLQSGVPSRFSGSGSGTDFTLTISSLQPEDFATYYCQQNYIPPITFGQGTRLEIRR
–	–	–	no binding	0.093 nM	0.00013 s⁻¹	1.4e+06 M⁻¹ s⁻¹	0.369 µg/mL	0.02 µg/mL	–	–	anti-MAdCAM monoclonal antibody 6.73.2 (antibody, human IgG4, kappa, V domains shown, human IgG4 kappa from hybridoma 6.73.2) VH: EVQLLESGGDLVQPGGSLRLSCAASGFTFRSYAMNWVRQAPGKGLEWVSVISGRGGTTYYADSVKGRFTISRDNSKNTLYLQMNSLRAEDAAVYYCAKIAVAGEGLYYYYGMDVWGQGTTVTVSS VL: DIQMTQSPSSLSASVGDRVTFTCRASQNITNYLNWYQQKPGKAPKLLIYAASSLPRGVPSRFRGSGSGTDFTLTISSLQPEDFATYYCQQSYSNPPECGFGQGTTLDIKR
